Data taken from US9932404B2.

Tests used:
[1] = target: human TLR3 extracellular domain (amino acids 1-703) with C-terminal poly-histidine tag (human); experiment: ELISA, coated huTLR3 ECD
[2] = target: human TLR3 extracellular domain (amino acids 1-703) with C-terminal poly-histidine tag (human); experiment: Biacore (data not shown)
[3] = target: full-length murine TLR3 (mouse)

EC50 [1] [µg/mL]	Kd [2] [nM]	IC50, poly(I:C)-induced ISRE luciferase reporter [3] [µg/mL]	Binder
0.019	< 10		mAb 6 (antibody, V domains shown) VH: QVELQQSGPGLVKPSQTLSLTCAISGDSVSTRSAAWGWIRQSPGRGLEWLGRIYMRSKWYNDYAVSVKSRITINPDTSKNQFSLQLNSVTPEDTAVYYCARHTYPYLSFDVWGQGTLVTVSS VL: DIELTQPPSVSVAPGQTARISCSGDALGGYFVSWYQQKPGQAPVLVIYDDDNRPSGIPERFSGSNSGNTATLTISGTQAEDEADYYCGSYDSNSLTVFGGGTKLTVL
0.0437	< 10		mAb 16 (antibody, V domains shown) VH: QVELVQSGAEVKKPGESLKISCKGSGYSFNNYWIGWVRQMPGKGLEWMGIIDPGDSYTNYAPSFQGQVTISADKSISTAYLQWSSLKASDTAMYYCARNIYEFDYWGQGTLVTVSS VL: DIQMTQSPSSLSASVGDRVTITCRASQGISSWLNWYQQKPGKAPKLLIYGASNLQSGVPSRFSGSGSGTDFTLTISSLQPEDFAVYYCQQYDDFSITFGQGTKVEIK
0.0531	< 10		mAb 2 (antibody, V domains shown) VH: QVELVQSGAEVKKPGESLKISCKGSGYSFNNYWIGWVRQMPGKGLEWMGIIDPQDSWTNYAPSFQGQVTISADKSISTAYLQWSSLKASDTAMYYCARNIYEFDYWGQGTLVTVSS VL: DIQMTQSPSSLSASVGDRVTITCRASQGISSWLNWYQQKPGKAPKLLIYGASNLQSGVPSRFSGSGSGTDFTLTISSLQPEDFAVYYCQQYDDFSITFGQGTKVEIK
		0.7	mAb c1811 (antibody, V domains shown) VH: EVQLVASGGGLVKPGASLKLSCVASGFTFSDYWMAWVRQTPGKPMEYIGDIKSDGSKVNYAPSLKNRFTISRDNARTTLYLQMSNVRSEDTATYYCNRDIGPDWYFDFWGPGTMVTVSS VL: DIQMTQSPTSLSASLGETVTIECRASEDIYNGLAWYQQKPGKSPQLLIYDSNSLHTGVPSRFSGRGSGTQYSLRINSLQSEDVASYFCQQYYDYPLTFGSGTKLEIKR
0.0186	< 10		mAb 8 (antibody, V domains shown) VH: QVELQQSGPGLVKPSQTLSLTCAISGDSVSSNSAAWGWIRQSPGRGLEWLGIIQTRSKWYNDYAVSVKSRITINPDTSKNQFSLQLNSVTPEDTAVYYCARYSYPFYSIDYWGQGTLVTVSS VL: DIELTQPPSVSVAPGQTARISCSGDNIGSYYVHWYQQKPGQAPVLVIYEDSERPSGIPERFSGSNSGNTATLTISGTQAEDEADYYCQSYDSQFSFGVFGGGTKLTVL
0.0158	< 10		mAb 10 (antibody, V domains shown) VH: QVELQQSGPGLVKPSQTLSLTCAISGDSVSSNSAAWGWIRQSPGRGLEWLGIIQKRSKWYNNYAVSVKSRITINPDTSKNQFSLQLNSVTPEDTAVYYCARYSYPFYSIDYWGQGTLVTVSS VL: DIELTQPPSVSVAPGQTARISCSGDNIGSYYVHWYQQKPGQAPVLVIYEDSERPSGIPERFSGSNSGNTATLTISGTQAEDEADYYCQSYDTPVYSVFGGGTKLTVL

The remaining lines, values behind:

Binder	EC50 [1] [µg/mL]	Kd [2] [nM]	IC50, poly(I:C)-induced ISRE luciferase reporter [3] [µg/mL]
mAb 13 (antibody, V domains shown) VH: QVELVQSGAEVKKPGESLKISCKGSGYSFTNYWVGWVRQMPGKGLEWMGFIDPSDSYTNYAPSFQGQVTISADKSISTAYLQWSSLKASDTAMYYCARELYQGYMDTFDSWGQGTLVTVSS VL: DIQMTQSPSSLSASVGDRVTITCRASQSIGLYLAWYQQKPGKAPKLLIYAASSLQSGVPSRFSGSGSGTDFTLTISSLQPEDFATYYCQQGESILSTFGQGTKVEIK	0.0235	< 10	
mAb 14 (antibody, V domains shown) VH: QVELVQSGAEVKKPGESLKISCKGSGYSFTNYWVGWVRQMPGKGLEWMGFIDPSDSYTNYAPSFQGQVTISADKSISTAYLQWSSLKASDTAMYYCARELYQGYMDTFDSWGQGTLVTVSS VL: DIQMTQSPSSLSASVGDRVTITCRASQSIGLYLAWYQQKPGKAPKLLIYAASSLQSGVPSRFSGSGSGTDFTLTISSLQPEDFATYYCQQAETVSPTFGQGTKVEIKR	0.0336	< 10	
mAb 19 (antibody, V domains shown) VH: QVELVQSGAEVKKPGESLKISCKGSGYSFTNYWVGWVRQMPGKGLEWMGFIDPSDSYTNYAPSFQGQVTISADKSISTAYLQWSSLKASDTAMYYCARELYQGYMDTFDSWGQGTLVTVSS VL: DIQMTQSPSSLSASVGDRVTITCRASQSIGLYLAWYQQKPGKAPKLLIYAASSLQSGVPSRFSGSGSGTDFTLTISSLQPEDFATYYCQQYGSVSITFGQGTKVEIK	0.0665	< 10	
mAb 1 (antibody, V domains shown) V domain 1: GVELVQSGAEVKKPGESLKISCKGSGYSFTDNWISWVRQAPGKGLEWMGVIDPSDSYTNYAPSFQGQVTISADKSISTAYLQWSSLKASDTAMYYCAREWGIGGMVDIWG V domain 2: DIVLTQSPATLSLSPGERATLSCRASQYIDISYLAWYQQKPGQAPRLLIYDASSRATGVPARFSGSGSGTDFTLTISSLEPEDFAVYYCQQYYSLSITFGQGTKVEIK	0.0172	< 10	
mAb 4 (antibody, V domains shown) VH: QVELQQSGPGLVKPSQTLSLTCAISGDSVSTRSAAWGWIRQSPGRGLEWLGKISYRSRWYNDYAVSVKSRITINPDTSKNQFSLQLNSVTPEDTAVYYCARHTYPYLSFDVWGQGTLVTVSS VL: DIELTQPPSVSVAPGQTARISCSGDALGGYFVSWYQQKPGQAPVLVIYDDDNRPSGIPERFSGSNSGNTATLTISGTQAEDEADYYCASYDGDEFTVFGGGTKLTVL	0.0128	< 10	
mAb 7 (antibody, V domains shown) VH: QVELQQSGPGLVKPSQTLSLTCAISGDSVSTRSAAWGWIRQSPGRGLEWLGRIYMRSKWYNDYAVSVKSRITINPDTSKNQFSLQLNSVTPEDTAVYYCARHTYPYLSFDVWGQGTLVTVSS VL: DIELTQPPSVSVAPGQTARISCSGDALGGYFVSWYQQKPGQAPVLVIYDDDNRPSGIPERFSGSNSGNTATLTISGTQAEDEADYYCSSYDSDSLTVFGGGTKLTVL	0.0161	< 10	
mAb 17 (antibody, V domains shown) VH: QVELQQSGPGLVKPSQTLSLTCAISGDSVSTRSAAWGWIRQSPGRGLEWLGRIYMRSKWYNDYAVSVKSRITINPDTSKNQFSLQLNSVTPEDTAVYYCARHTYPYLSFDVWGQGTLVTVSS VL: DIELTQPPSVSVAPGQTARISCSGDALGGYFVSWYQQKPGQAPVLVIYDDDNRPSGIPERFSGSNSGNTATLTISGTQAEDEADYYCASYDGDEFTVFGGGTKLTVL	0.0138	< 10	
mAb 5 (antibody, V domains shown) VH: QVELQQSGPGLVKPSQTLSLTCAISGDSVSTRSAAWGWIRQSPGRGLEWLGRIYMRSKWYNDYAVSVKSRITINPDTSKNQFSLQLNSVTPEDTAVYYCARHTYPYLSFDVWGQGTLVTVSS VL: DIELTQPPSVSVAPGQTARISCSGDALGGYFVSWYQQKPGQAPVLVIYDDDNRPSGIPERFSGSNSGNTATLTISGTQAEDEADYYCQSYDEDSATVFGGGTKLTVL	0.0199	< 10	
mAb 3 (antibody, V domains shown) VH: QVELQQSGPGLVKPSQTLSLTCAISGDSVSTRSAAWGWIRQSPGRGLEWLGRIHRRSKWYNDYAVSVKSRITINPDTSKNQFSLQLNSVTPEDTAVYYCARHTYPYLSFDVWGQGTLVTVSS VL: DIELTQPPSVSVAPGQTARISCSGDALGGYFVSWYQQKPGQAPVLVIYDDDNRPSGIPERFSGSNSGNTATLTISGTQAEDEADYYCASYDGDEFTVFGGGTKLTVL	0.0234	< 10	
mAb 18 (antibody, V domains shown) VH: QVELQQSGPGLVKPSQTLSLTCAISGDSVSSNSAAWGWIRQSPGRGLEWLGIIQKRSKWYNNYAVSVKSRITINPDTSKNQFSLQLNSVTPEDTAVYYCARYSYPFYSIDYWGQGTLVTVSS VL: DIELTQPPSVSVAPGQTARISCSGDNIGSYYVHWYQQKPGQAPVLVIYEDSERPSGIPERFSGSNSGNTATLTISGTQAEDEADYYCQSYDSQFSFGVFGGGTKLTVL	0.00968	< 10	
mAb 11 (antibody, V domains shown) VH: QVELQQSGPGLVKPSQTLSLTCAISGDSVSSNSAAWGWIRQSPGRGLEWLGIIQKRSKWYNNYAVSVKSRITINPDTSKNQFSLQLNSVTPEDTAVYYCARYSYPFYSIDYWGQGTLVTVSS VL: DIELTQPPSVSVAPGQTARISCSGDNIGSYYVHWYQQKPGQAPVLVIYEDSERPSGIPERFSGSNSGNTATLTISGTQAEDEADYYCSSYDEPNFNVFGGGTKLTVL	0.0263	< 10	
mAb 12 (antibody, V domains shown) V domain 1: QVELQQSGPGLVKPSQTLSLTCAISGDSVSSNSAAWGWIRQSPGRGLEWLGIIQKRSKWYNNYAVSVKSRITINPDTSKNQFSLQLNSVTPEDTAVYYCARYSYPFYSIDYWGQGTLVTVSS V domain 2: DIELQQSGPGLVKPSQTLSLTCAISGDSVSSNSAAWGWIRQSPGRGLEWLGIIQKRSKWYNNYAVSVKSRITINPDTSKNQFSLQLNSVTPEDTAVYYCARYSYPFYSIDYWGQGTLVTVSS	0.0256	< 10	
mAb 9 (antibody, V domains shown) VH: QVELQQSGPGLVKPSQTLSLTCAISGDSVSSNSAAWGWIRQSPGRGLEWLGIIQIRSKWYNDYALSVKSRITINPDTSKNQFSLQLNSVTPEDTAVYYCARYSYPFYSIDYWGQGTLVTVSS VL: DIELTQPPSVSVAPGQTARISCSGDNIGSYYVHWYQQKPGQAPVLVIYEDSERPSGIPERFSGSNSGNTATLTISGTQAEDEADYYCQSYDSQFSFGVFGGGTKLTVL	0.0226	< 10	
